Results published in patent US20140249468.

Measured: fluorescence activation (recovery of Cy5.5 fluorescence on cleavage)

activated recombinant human MMP-13
>25-fold vs. without MMP: MMP-P67 | MMP-P0 | MMP-P4 | MMP-P12 | MMP-P24
